# Patent US6875581
# Target: calcineurin (recombinant or partly purified, phosphoserine phosphatase assay)
# Test: cell-based or functional assay
Substance,Percentage of FK506 inhibitable RII-phosphopeptide activity after 20 min compared with the activity at 0 min; constant activity (1.67 U),Percentage of FK506 inhibitable RII-phosphopeptide activity after 20 min compared with the activity at 0 min; constant protein (3 ug),protection of calcineurin after calcium induced redox inactivation
purified human erythrocyte CuZnSOD (Sigma Aldrich) (from UniProt P00441 2-154) (enzyme),57%,57%,50 to 100%
recombinant human CuZnSOD mutation A4V (from UniProt P00441 2-154) (enzyme),8%,22%,–
recombinant human CuZnSOD mutation D90A (from UniProt P00441 2-154) (enzyme),32%,42%,–

# More lines, now with the values ahead:
Percentage of FK506 inhibitable RII-phosphopeptide activity after 20 min compared with the activity at 0 min; constant activity (1.67 U),Percentage of FK506 inhibitable RII-phosphopeptide activity after 20 min compared with the activity at 0 min; constant protein (3 ug),protection of calcineurin after calcium induced redox inactivation,Substance
21%,16%,–,recombinant human CuZnSOD mutation G93A (from UniProt P00441 2-154) (enzyme)
56%,70%,50 to 100%,recombinant human wild-type CuZnSOD (from UniProt P00441 2-154) (enzyme)
